Data published in the DeepSol protein solubility set.

test: soluble on expression in E. coli; label from the status in PepcDB or PDB records

| Sequence | soluble on expression in E. coli |
| --- | --- |
| MSLALRFITAEEAAEFVHHNDNVGFSGFTPAGNPKVVPAAIAKRAIAAHEKGNPFKIGMFTGASTGARLDGVLAQADAVKFRTPYQSNKDLRNLINNGSTSYFDLHLSTLAQDLRYGFYGKVDVAIIEVADVTEDGKILPTTGVGILPTICRLADRIIVELNDKHPKEIMGMHDLCEPLDPPARRELPVYTPSDRIGKPYVQVDPAKIVGVVRTSEPNDESDFAPLDPVTQAIGDNVAAFLVSEMKAGRIPKDFLPLQSGVGNVANAVLGALGDNPDIPAFNMYTEVIQDAVIALMKKGRIKFASGCSLSVSRSVIQDIYANLDFFKDKILLRPQEYSNNPEIVRRLGVITINTALEADIFGNINSTHVSGTRMMNGIGGSGDFTRNSYVSIFTTPSVMKDGKISSFVPMVAHHDHSEHSVKVIISEWGVADLRGKNPRERAHEIIDKCVHPDYRPLLRQYLELGVKGQTPQNLDCCFAFHQELAKSGDMRNVRWEDYMKEGHHHHHH | soluble |
| MAHHHHHHMSTGHLRSVQLCRGQLRSLSHSSSMVGLRDFCNLVDECIKDIGVLKVNADDARILLHKRQQTFPSRHCDGVLAQTQVLYAQVLLKNLAEPVNRLIVRPVAVKNEGSEGLGVLHKPYDGAQSASPEIIAAQLELLQRAHRPTALNVLQDCRVHAATLLRAVRAVQLAQVRFSPHEKCTNTHGPKKKKK | not soluble |
| MAKALEQPFDVANIPGPKMATLLEKGKPVANMIKKAKRPLLIVGPDMTDEMFERVKKFVEKDITVVATGSAITRFIDAGLGEKVNYAVLHELTQFLLDPDWKGFDGQGNYDLVLMLGSIYYHGSQMLAAIKNFAPHIRALAIDRYYHPNADMSFGNLWKKEEDYLKLLDEILAEL | soluble |
| GMQTKVINFNDKFSLFNQHWSPRVIAEMNDYQFKLVKVEGEFVWHEHADTDEVFIVMEGTLQIAFRDQNITLQAGEMYVIPKGVEHKPMAKEECKIMIIEPR | soluble |
| SSLRLPSAAELSGQWVLSGAEQHCDIRLNTDVLDGTTWKLAGDTACLQKLLPEAPVGWRPTPDGLTLTQADGSAVAFFSRNRDRYEHKLVDGSVRTLKKKA | soluble |
| GSHMDHLPMPKFGPLAGLRVVFSGIEIAGPFAGQMFAEWGAEVIWIENVAWADTIRVQPNYPQLSRRNLHALSLNIFKDEGREAFLKLMETTDIFIEASKGPAFARRGITDEVLWQHNPKLVIAHLSGFGQYGTEEYTNLPAYNTIAQAFSGYLIQNGDVDQPMPAFPYTADYFSGLTATTAALAALHKVRETGKGESIDIAMYEVMLRMGQYFMMDYFNGGEMCPRMSKGKDPYYAGCGLYKCADGYIVMELVGITQIEECFKDIGLAHLLGTPEIPEGTQLIHRIECPYGPLVEEKLDAWLATHTIAEVKERFAELNIACAKVLTVPELESNPQYVARESITQWQTMDGRTCKGPNIMPKFKNNPGQIWRGMPSHGMDTAAILKNIGYSENDIQELVSKGLAKVED | soluble |
| SLKIKNILLSGGSGKRLWPLSRSLYPKQFLKLFDHKSLFELSFKRNASLVDETLIVCNEKHYFLALEEIKNEIKNKSVGFLLESLSKNTANAIALSALMSDKEDLLIVTPSDHLIKDLQAYENAIKKAIDLAQKGFLVTFGVSIDKPNTEFGYIESPNGLDVKRFIEKPSLDKAIEFQKSGGFYFNSGMFVFQAGVFLDELKKHAPTILKGCERAFESLENAYFFEKKIARLSEKSMQDLEDMSIDIALMQQSHKIKMVELNAKWSDLGNFNALFEEAANEPKENVSLNQTPVFAKESENNLVFSHKVSALLGVENLAVIDTKDALLIAHKDKAKDLKALVNEVETNN | soluble |
| LAQRAGILCREFAIGFGPKIFSFKKNETVYTIRLLPVGGFVRMAGEDPEMIEVKPGYTVGLLFNKEDQVEKVIINQKEKYPDALVIEVETADLEHDMKITGYEQGKEDELSSFTVSETSFFIVDGEEVQIAPYNRQFGSKPVWQRIKA | not soluble |
| MKLFISPGACSLAPHIALRETGADFEAVKVDLAVRKTEAGEDFLTVNPSGKVPALTLDSGETLTENPAILLYIADQNPASGLAPAEGSLDRYRLLSRLSFLGSEFHKAFVPLFAPATSDEAKAAAAESVKNHLAALDKELAGRDHYAGNAFSVADIYLYVMLGWPAYVGIDMAAYPALGAYAGKIAQRPAVGAALKAEGLA | soluble |
| MVRKMNKLAKRLASTSKSRQPEPESDSDGSEFDFDNAIEEKPMEAMDIEEVESDGDDDERELQAAFAAGLLKDGLNIQVAKKRPIINKSAEMKEKLAEITKDLPWVETLEVVTPHSEMDKKVENDDFQRELNFYKQAEKAVQIAYPRLLNLGIKVLRPTDYYAEMAKSDTHMQKVRKRLLGIQEMKERQEAFRRIREEKKFAVKVQKEVLAAKNTEKKNLAEAVKKHKKGMKQQLEDMLNNVKRHGLDQDDDAPTGAFGDRLGGRGGAGRGGAGRGGSMRNAGELKRKLKSDKFGYGGKKKGMKRNNKESFNDLFGAPRGGFGGRGRGGGRGGRGGRGRR | not soluble |
| MSDVKGKSTSGRGLTPKQEKFCQLYIELGNASEAYRQSYDCSKMTTEVINVKASELLNKNGKITVRVEELRQAHQQRHNLTLDNIIADLQEYRDICMGRKPLTITTVVKNAQEGTAQSVNTECFVFEPTGANKALELLGKHLGMFTNKVDVTTDGKPLPTVINVTFSDEPA | not soluble |
| MSTIAAGRFAKDDVDQDTKWWKEYPSKHYIERARPQNYYDEFVQNAWSKSKRLARAASFTNLTYIKDKDMDFPIRKSDSVSTLAPSLALPQYCREAQRIVHTVPVYKPTVHDWYNKSYSDARWRDTHREINKPYKPLDTYISPASSHVPYYSFQTKRIFFDEKARQLAPYLKESQRYMDRYVSSRLKADDYANRFAYTAYEWRKPQDHSFNREFMTTQGVFVATPTGIPHQHYDKFGMRRLYKRTGRFFF | not soluble |
| MYIMKQSGWLELICGSMFSGKSEELIRRVKRATYAKQEVRVFKPVIDNRYSEAAVVSHNGTSMTSYAISSAADIWDHISESTDVVAVDEVQFFDQEIVEVLSSLADKGYRVIAAGLDMDFRGEPFGVVPNIMAIAESVTKLQAVCSVCGSPASRTQRLIDGKPASYDDPVILVGAAESYEARCRHHHEVPGKSKKLEHHHHHH | soluble |
| MEIEDGFYLIDDSNHDEDLDFSDFPWLDPDHPLFFPATQANNSKGSTRWDAVNKFSVENWYPHLRKHTFKSHFITLNYNDIHYLMGNIPPDYDSSKLESIFNKILSEFNNKEVFMRLSTRSPKDSKFLFEEASTIMSKDFVYWNENDNKHQQLVSFVASMLKAMKIKSGRKIIETIAQSPRVYNDLLALVSSSNQSDCTTNVILREWHDIRPDHEFRVFVSRRHRKESIVTAISQYFHFLYFDKSPADCFNFLDEEDKKAVIKKFENYVLKSVDPDVAKFLNFSSEQDDDESSDCIREYIVDLALIPVSQYHGEITDENIIEIGANTYVMVVIELNPFAPAATGSGLEHHHHHH | not soluble |
| MSDYQMFEVQVSQVEPLTEQVKRFTLVATDGKPLPAFTGGSHVIVQMSDGDNQYSNAYSLLSSPHDTSCYQIAVRLEENSRGGSRFLHQQVKVGDRLTISTPNNLFALIPSARKHLFIAGGIGITPFLSHMAELQHSDVDWQLHYCSRNPESCAFRDELVQHPQAEKVHLHHSSTGTRLELARLLADIEPGTHVYTCGPEALIEAVRSEAARLDIAADTLHFEQFAIEDKTGDAFTLVLARSGKEFVVPEEMTILQVIENNKAAKVECLCREGVCGTCETAILEGEADHRDQYFSDEERASQQSMLICSRAKGKRLVLDL | soluble |
| MNILKIRHGQGHIAKIEAQSFVDGEGVRCSLYVSGCPFACENCYNKVAQNFKYGEPFHEDTLEEIMEYCAPNYISGLSILGGEPFCNVDITLKCAQTFRKRFGNTKSLWVWTGFLFEYLERDSAERKTLLELIDVLVDGPFINHLYRPNLPYKGSMNQRVIDVQASLQKRRVCEYIKSLEHHHHHH | not soluble |
| MASSSSLSLSFPSSSLSRTWDYDVFPSFHGEDVRKAFLSQILKKEFGRKAINFFVDHEMERGEFIGPVLKQAIKGSKIALVLLSKNYASSWCCLDELVEIMKKESGQTVITIFYEVDPNEVKKQTGDFGKAFKETCQGKTEEKVQTWRKALEGVGLATIAGFHSSNWFVFFI | not soluble |
| PVAVYTTHDPQALKITGNRLSCEWLRIPPGTNLSKSAHEGERPEFFKLFKDGVEIPPEKMPSQLSAAGIEVNDCELDIVSADGRIRHVLGNARPLRDEN | not soluble |
